Experimental data taken from publication PMC3846842.
“And” between values parts separate entries of the source, which are not always exact repeats. Equal values may be shown once.

Columns and labels:
[1] = biological target: BtcA (Bordetella pertussis); assay: cross-linking; BtcA about 4 mg/ml in PBS with serially diluted EGS (from 3 mM), 30 min at RT, SDS-PAGE
[2] = biological target: BtcA (Bordetella pertussis); assay: SEC-RALS; BtcA (525 ug) on Superdex 200 10/300 with triple detector array; 20 mM Tris pH 8.0, 350 mM NaCl, 20 mM EDTA
[3] = biological target: BteA287 (BteA N-terminal domain, residues 1-287) (Bordetella pertussis); assay: MALDI-TOF MS; BtcA-BteA287 complex, linear mode, m/z 20,000 to 150,000; the methods describe EGS cross-linking of the complex before MALDI-TOF analysis
[4] = biological target: BteA287 (BteA N-terminal domain, residues 1-287) (Bordetella pertussis); assay: MST; labeled BteA287 or BteA32-287 (NT-495 BLUE-NHS) mixed with BtcA serially diluted from 200 uM or 100 uM; 20 mM Tris 8, 350 mM NaCl, 20 mM EDTA, 0.05% Tween-20; 20°C; logistic dose-response fit, three measurements averaged
[5] = biological target: BteA32-287 (Bordetella pertussis); assay: as above

Substance | stoichiometry N [1] | stoichiometry N [2] | stoichiometry N (BtcA per BteA287) [3] | Kd [4] | Kd [5] | stoichiometry N [3]
BtcA (natural protein) | 2 | 2 | 1 and 2 | 6.6 µM | 14 µM | 
BteA287 (BteA N-terminal domain, residues 1-287) (domain or fragment) |  |  |  |  |  | 2
